Data published in publication PMC3835729.

Substrate: Nc1ncnc2c1ncn2[C@@H]1O[C@H](COP(=O)(O)OC(=O)CCc2c[nH]c3ccccc23)[C@@H](O)[C@H]1O
Experiment: purified protein
Conditions: 20 mM HEPES, 1 mM MgCl2, pH 7.2, 25 °C

B1: human histidine triad nucleotide binding protein 1 (hHint1) (Homo sapiens; H114A) (protein)
chain: ADEIAKAQVARPGGDTIFGKIIRKEIPAKIIFEDDRCLAFHDISPQAPTHFLVIPKKHISQISVAEDDDESLLGHLMIVGKKCAADLGLNKGYRMVVNEGSDGGQSVYHVHLAVLGGRQMHWPPG
  Km: 0.12 ± 0.01 µM
  kcat: 0.69 ± 0.05 s⁻¹
  kcat/Km: 6e+06 ± 1e+06 M⁻¹ s⁻¹
